The values below come from patent publication US20260139048A1 (NANJING LEGEND BIOTECH, published 2026).

To fix the notation:
T1: His-tagged human TIGIT (human, UniProt Q495A1 22-141)
T1 construct: SPR analyte; also called human TIGIT protein; not shown: His tag
T1 sequence: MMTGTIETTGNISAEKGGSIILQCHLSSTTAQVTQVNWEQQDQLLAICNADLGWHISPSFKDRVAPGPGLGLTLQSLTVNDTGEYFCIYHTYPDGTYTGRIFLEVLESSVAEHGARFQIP

T2: human TIGIT expressed on CHO-K1 cells (human, UniProt Q495A1 22-244)
T2 construct: whole, on cells; also called human TIGIT-CHO-K1 cells; human TIGIT over-expressing cell line
T2 sequence (looked up): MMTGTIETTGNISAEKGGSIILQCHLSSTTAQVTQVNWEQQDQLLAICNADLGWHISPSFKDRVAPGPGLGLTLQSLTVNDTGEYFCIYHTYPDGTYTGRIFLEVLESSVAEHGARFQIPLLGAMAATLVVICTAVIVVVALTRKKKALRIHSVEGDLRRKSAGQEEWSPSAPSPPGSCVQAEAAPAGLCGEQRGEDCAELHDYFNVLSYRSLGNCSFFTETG

T3: TIGIT on TIGIT-over expressing NFAT-Luc/Jurkat effector cells (GenScript reporter cell line) (UniProt Q495A1 22-244, limits assumed)
T3 sequence (looked up): T2 sequence (looked up)

B1: huTIGIT-6-1 (antibody, human IgG1, kappa, V domains shown)
VH: QVQLVQSGAEVKKPGASVKVSCKASGYTITENTMHWVRQAPGQRLEWIGGINPNQGGTSYSQKFQGRATLTVDTSASTAYMELSSLRSEDTAVYYCTRSSYYRYDLDYWGQGTTVTVSS
VL: DIQMTQSPSSLSASVGDRVTITCQASQDIKTALAWYQQKPGKAPKLLIYSASYRYTGVPSRFSGSGSGTDFTFTISSLQPEDIATYYCHQHYTTPWTFGGGTKLEIKR
notes: Humanized IgG; also called 6VH6.M4 + 6VL1.M1
B2: humanized TIGIT-6 antibody 6VH6.M3 + 6VL1.M1 (antibody, V domains shown)
VH: B1 VH with Q55N
VL: DIQMTQSPSSLSASVGDRVTITCQASQDIKTALAWYQQKPGKAPKLLIYSASYRYTGVPSRFSGSGSGTDFTFTISSLQPEDIATYYCHQHYTTPWTFGGGTKLEIK
notes: Full-length IgG, tested as HEK293 supernatant
B3: huTIGIT-6-2 (antibody, human IgG1, kappa, V domains shown)
VH: B1 VH with Q55N, G56A
VL: B1 VL
notes: Humanized IgG; also called 6VH6.M5 + 6VL1.M1
B4: huTIGIT-6-3 (antibody, human IgG1, kappa, V domains shown)
VH: B1 VH with I29F, T33A
VL: B1 VL
notes: Humanized IgG; also called 6VH6.M6 + 6VL1.M1
B5: huTIGIT-19-1 (antibody, human IgG1, kappa, V domains shown)
VH: QVQLVQSGAEVKKPGASVKVSCKASGYTFTRYSMYWVRQAPGQGLEWIAFIDAYSGGSTYNQRFRGKATLTVDTSISTAYMELSRLRSDDTAVYYCARGGDYGWYLGVWGQGTLVTVSS
VL: DIQMTQSPSSLSASVGDRVTITCRPSENIYTYLSWYQQKPGKAPKLLIYNAKSLPSGVPSRFSGSGSGTDFTLTISSLQPEDFATYYCQHHYGNPLTFGQGTKVEIKR
notes: Humanized IgG; also called 19VH4.M9 + 19VL1.M4
B6: huTIGIT-19-2 (antibody, human IgG1, kappa, V domains shown)
VH: B5 VH
VL: B5 VL with P25A, E27Q, N28S, T31S
notes: Humanized IgG; also called 19VH4.M9 + 19VL1.M7
B7: huTIGIT-19-4 (antibody, human IgG1, kappa, V domains shown)
VH: B5 VH with N61A, R63K, R65Q
VL: B5 VL with P25A, E27Q, N28S, T31S
notes: Humanized IgG; also called 19VH4.M10 + 19VL1.M7
B8: huTIGIT-19-3 (antibody, human IgG1, kappa, V domains shown)
VH: B5 VH with N61A, R63K, R65Q
VL: B5 VL
notes: Humanized IgG; also called 19VH4.M10 + 19VL1.M4
B9: humanized TIGIT-6 antibody 6VH6 + 6VL1 (antibody, V domains shown)
VH: B1 VH with Q55N, S61N, K63Q, Q65K
VL: B2 VL with Q24K, I29V
notes: as for B2
B10: humanized TIGIT-6 antibody 6VH6 + 6VL1.M1 (antibody, V domains shown)
VH: B1 VH with Q55N, S61N, K63Q, Q65K
VL: B2 VL
notes: as for B2
B11: humanized TIGIT-6 antibody 6VH6.M4 + 6VL1 (antibody, V domains shown)
VH: B1 VH
VL: B2 VL with Q24K, I29V
notes: as for B2
B12: humanized TIGIT-6 antibody 6VH6.M3 + 6VL1 (antibody, V domains shown)
VH: B1 VH with Q55N
VL: B2 VL with Q24K, I29V
notes: as for B2
B13: humanized TIGIT-6 antibody 6VH6.M1 + 6VL1 (antibody, V domains shown)
VH: B1 VH with I29F, T33A, Q55N, S61N, K63Q, Q65K
VL: B2 VL with Q24K, I29V
notes: as for B2
B14: humanized TIGIT-6 antibody 6VH5 + 6VL1 (antibody, V domains shown)
VH: B1 VH with Q55N, S61N, K63Q, Q65K, V72R
VL: B2 VL with Q24K, I29V
notes: as for B2
B15: humanized TIGIT-19 antibody 19VH4.M9 + 19VL1 (antibody, V domains shown)
VH: B5 VH
VL: DIQMTQSPSSLSASVGDRVTITCRPSENIYTYLSWYQQKPGKAPKLLIYNAKTLPEGVPSRFSGSGSGTDFTLTISSLQPEDFATYYCQHHYGNPLTFGQGTKVEIK
notes: as for B2
B16: humanized TIGIT-19 antibody 19VH4.M7 + 19VL1 (antibody, V domains shown)
VH: B5 VH with A53P, N61A, R63K, R65Q
VL: B15 VL
notes: as for B2

Changes are numbered by the printed parent chain.

The first assay concerns the target T1, His-tagged human TIGIT. Nature of the assay: SPR experiment 2, IgG from HEK293 supernatant captured. A general note: SPR reads the build-up and loss of mass on a sensor chip optically.
In general, Kd refers to the equilibrium constant for the complex coming apart. A low value points to tighter binding. In general, koff refers to the rate constant with which the complex falls apart. Low readings indicate slow dissociation, high ones fast dissociation. In general, kon refers to the second-order rate constant of association. Higher therefore signals fast association. As for B1, the affinity, expressed as Kd, was 0.34 nM; the koff was 9.8e-05 s⁻¹; the kon was determined as 280000 M⁻¹ s⁻¹.
Take B2: the affinity, expressed as Kd, was 0.5 nM; the koff was 0.00016 s⁻¹; the kon was determined as 320000 M⁻¹ s⁻¹.
For the molecule B3, the Kd was 0.71 nM, the koff was found to be 0.00022 s⁻¹ and the on-rate (kon) was 300000 M⁻¹ s⁻¹.
For the molecule B4, binding was characterised by a dissociation constant (Kd) of 0.64 nM, the koff was determined as 0.00017 s⁻¹ and the kon turned out to be 270000 M⁻¹ s⁻¹.

A further assay deals with T1, His-tagged human TIGIT. Nature of the assay: SPR (Biacore T200), antibody captured, His-tagged TIGIT analyte.
With B5, the Kd worked out at 0.16 nM, the off-rate (koff) is 0.00019 s⁻¹ and the kon worked out at 1.1e+06 M⁻¹ s⁻¹.
Take B6: the Kd came to 0.19 nM, the koff was determined as 0.00021 s⁻¹ and the on-rate (kon) came to 1.1e+06 M⁻¹ s⁻¹.
Molecule B7 yielded a Kd of 0.49 nM, a koff of 0.00059 s⁻¹ and a kon of 1.2e+06 M⁻¹ s⁻¹.
In the case of B8, binding was put at a Kd of 0.28 nM, the dissociation rate constant (koff) amounted to 0.0003 s⁻¹ and the on-rate constant (kon) was 1.1e+06 M⁻¹ s⁻¹.
B1 came in with a dissociation constant Kd of 0.21 nM, a koff of 5.6e-05 s⁻¹ and a kon of 260000 M⁻¹ s⁻¹.
Taken in the same sequence, the figures for B3 were 0.27 nM, 9.6e-05 s⁻¹ and 350000 M⁻¹ s⁻¹.
As to B4, the Kd amounted to 0.29 nM, the koff was found to be 9.8e-05 s⁻¹ and the kon was 340000 M⁻¹ s⁻¹.

In the next assay the target is T4, His-tagged cynomolgus TIGIT (cynomolgus, UniProt A0A7N9I9V4 89-209).
T4 construct: SPR analyte; also called cynomolgus TIGIT protein; not shown: His tag
T4 sequence (A0A7N9I9V4 entry or part of it): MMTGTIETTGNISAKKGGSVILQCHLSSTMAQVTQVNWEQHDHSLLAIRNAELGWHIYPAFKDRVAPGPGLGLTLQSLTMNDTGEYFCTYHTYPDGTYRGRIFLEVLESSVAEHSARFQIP
The assay is described as above.
Molecule B5 registered a Kd of 0.047 nM, a koff of 3.7e-05 s⁻¹ and a kon of 790000 M⁻¹ s⁻¹.
For B6 the same measures were 0.055 nM, 5.2e-05 s⁻¹ and 950000 M⁻¹ s⁻¹.
B7 yielded a Kd of 0.087 nM, a koff of 7.3e-05 s⁻¹ and a kon of 840000 M⁻¹ s⁻¹.
B8 registered a Kd of 0.054 nM, a koff of 4.1e-05 s⁻¹ and a kon of 760000 M⁻¹ s⁻¹.
B1 showed a Kd of 75 nM, a koff of 0.0044 s⁻¹ and a kon of 59000 M⁻¹ s⁻¹.
Taken in the same sequence, the figures for B3 were 110 nM, 0.0074 s⁻¹ and 69000 M⁻¹ s⁻¹.
For B4 the same measures were 130 nM, 0.0078 s⁻¹ and 61000 M⁻¹ s⁻¹.

Another assay concerns the target T2, human TIGIT expressed on CHO-K1 cells. Nature of the assay: flow cytometry competition: biotinylated CD155-Fc on human TIGIT-CHO-K1 cells. A general note: Flow cytometry measures light scatter and fluorescence of single cells or particles in a stream.
In general, IC50 refers to the concentration at which inhibition is half-maximal. B5 returned an IC50 of 0.22 nM.
The molecule B6 came in with an IC50 of 0.24 nM.
The same measure, in the same setting: under B7 stands 0.26 nM; under B8, 0.21 nM.
Consider B1, for which the IC50 came to 1.04 nM.
As to B3, the IC50 stood at 0.975 nM.
On the same count and under the same terms, under B4 stands 1.1 nM.

The next assay shares this target. Nature of the assay: flow cytometry on CHO-K1 cells expressing human TIGIT.
Usually EC50 stands for the concentration giving half of the maximal effect. The low end stands for higher potency in that assay, the high end for lower potency in that assay. Molecule B5 came in with an EC50 of 0.294 nM.
As to B6, the midpoint of the response, the EC50, lay at 0.256 nM.
On the same count and under the same terms, under B7 stands 0.172 nM.
Still for that read-out and setting: in the case of B8 it was 0.196 nM; in that of B1, 1.16 nM.
The same measure, in the same setting: in the case of B3 it was 0.745 nM; in that of B4, 1.11 nM.

Another assay deals with T1, His-tagged human TIGIT. Nature of the assay: SPR experiment 1, IgG from HEK293 supernatant captured.
On to B9, for which the Kd was determined as 0.3 nM, the koff worked out at 0.00014 s⁻¹ and the kon came to 470000 M⁻¹ s⁻¹.
Turning to B10, binding was put at a Kd of 0.24 nM, the koff turned out to be 0.00013 s⁻¹ and the kon was determined as 530000 M⁻¹ s⁻¹.
With B11, the Kd was 0.65 nM, the koff was found to be 0.00015 s⁻¹ and the kon amounted to 230000 M⁻¹ s⁻¹.
For B12 the same measures were 0.35 nM, 0.00012 s⁻¹ and 350000 M⁻¹ s⁻¹.
Molecule B13 came in with a Kd of 0.63 nM, a koff of 0.00026 s⁻¹ and a kon of 410000 M⁻¹ s⁻¹.
B14: binding was put at a Kd of 0.35 nM, the koff was 0.00011 s⁻¹ and the kon is 310000 M⁻¹ s⁻¹.

Another assay concerns the target T1, His-tagged human TIGIT. Put plainly: SPR experiment 2, IgG from HEK293 supernatant captured. The source holds these as a separate data set.
For B15, the Kd was found to be 0.22 nM, the koff is 0.00023 s⁻¹ and the kon was 1.1e+06 M⁻¹ s⁻¹.
For B16 the same measures were 0.3 nM, 0.00032 s⁻¹ and 1.1e+06 M⁻¹ s⁻¹.

A further assay addresses T3, TIGIT on TIGIT-over expressing …. Nature of the assay: cell-based or functional assay.
As for B5, the “Bottom (RLU)” value was found to be 53900 RLU, the “EC50” value is 2.05 nM and the “Top (RLU)” value worked out at 144000 RLU.
As to B6, the “Bottom (RLU)” value turned out to be 55200 RLU; the midpoint of the response, the EC50, lay at 2.39 nM; the “Top (RLU)” value was 155000 RLU.
For B7, the “Bottom (RLU)” value is 51300 RLU, the “EC50” value was 4.28 nM and the “Top (RLU)” value was 148000 RLU.
Taken in the same sequence, the figures for B8 were 53700 RLU, 2.65 nM and 142000 RLU.
For B1 the same measures were 51200 RLU, 9.1 nM and 131000 RLU.
Consider B3, for which the “Bottom (RLU)” value was found to be 49800 RLU, the “EC50” value was found to be 9.03 nM and the “Top (RLU)” value was found to be 129000 RLU.
Take B4: the “Bottom (RLU)” value was 49400 RLU, the response was half-maximal at 11.1 nM (EC50) and the “Top (RLU)” value stood at 135000 RLU.

In another assay the target is T5, cynomolgus TIGIT expressed on CHO-K1 cells (cynomolgus, UniProt A0A7N9I9V4 89-312).
T5 construct: whole, on cells; also called cynomolgus TIGIT over-expressing cell line
T5 sequence (A0A7N9I9V4 entry or part of it): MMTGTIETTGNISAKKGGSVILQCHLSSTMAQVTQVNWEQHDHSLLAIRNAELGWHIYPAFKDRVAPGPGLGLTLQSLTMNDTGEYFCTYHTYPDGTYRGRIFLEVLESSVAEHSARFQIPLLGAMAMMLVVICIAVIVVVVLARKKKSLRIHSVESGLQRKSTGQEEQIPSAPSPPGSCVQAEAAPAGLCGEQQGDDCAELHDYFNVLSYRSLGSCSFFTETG
Nature of the assay: flow cytometry on CHO-K1 cells expressing cynomolgus TIGIT.
B5 gave an EC50 of 0.473 nM.
For the molecule B6, the EC50 was found to be 0.44 nM.
Turning to B7, the midpoint of the response, the EC50, lay at 0.408 nM.
Still for that read-out and setting: in the case of B8 it was 0.384 nM.
Same read-out and setting: in the case of B1 it was 4.69 nM; in that of B3, 4.98 nM; in that of B4, 8.2 nM.
